Assay [1] concerns the target T1, recombinant monkey PD-1 protein (monkey, UniProt B0LAJ3 25-170, Biotinylated in the Octet assay; the site of biotinylation is not stated.).
T1 construct: Bought protein; also called biotinylated monkey PD-1 protein
Put plainly: Octet (BLI), biotinylated monkey PD-1. For orientation: BLI is a label-free optical method that tracks binding on a fibre tip over time.

For assay [2], the target named is T1, recombinant monkey PD-1 protein. As to the kind of experiment: indirect ELISA, coated antigen titrated, antibody at 2 µg/mL. A general note: An ELISA detects its analyte on a solid surface through an enzyme-linked reagent.
Assay [3] addresses T2, recombinant human PD-1 protein (Sino Biological, Inc, Cat. 10377-H08H) (human, UniProt Q15116 25-167). Put plainly: competition ELISA: coated recombinant human PD-1, blocked ligand PD-L1-Fc-biotin, antibody at three concentrations.
In assay [4] the target is T3, recombinant mouse PD-1 protein (mouse, UniProt Q02242 25-167, limits assumed, biotinylated in the Octet assay).
T3 construct: Bought protein; also called murine PD-1; biotinylated mouse PD-1 protein
T3 sequence (looked up): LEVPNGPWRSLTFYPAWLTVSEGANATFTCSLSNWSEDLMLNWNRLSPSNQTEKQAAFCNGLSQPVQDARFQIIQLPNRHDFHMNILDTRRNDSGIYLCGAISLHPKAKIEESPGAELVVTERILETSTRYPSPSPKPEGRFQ
As to the kind of experiment: Octet biolayer interferometry on biotinylated mouse PD-1 protein.

Assay [5] has as its target T1, recombinant monkey PD-1 protein. Put plainly: indirect ELISA, coated antigen titrated (antigenic EC50), antibody at 2 µg/mL.
Assay [6] concerns the target T4, biotinylated FCGRT-His+B2M protein (human, UniProt P55899 24-297; P61769 21-119, biotinylated).
T4 construct: Bought from Sino Biological; also called recombinant human FcRn protein; human FcRn protein
Put plainly: ELISA at pH 6.0, biotinylated FCGRT-His+B2M captured on avidin, antibody at 270 µg/mL.

In assay [7] the target is T5, recombinant CD16a-AVI-His (V158)+BirA protein (UniProt P08637 17-208, +BirA (AVI tag, detected with streptavidin/HRP)).
T5 construct: Bought from Sino Biological; It is the V158 allotype as printed; also called recombinant CD16a (V158) protein; recombinant CD16a protein
As to the kind of experiment: ELISA: antibody titrated on coated recombinant human PD-1, then recombinant CD16a-AVI-His (V158)+BirA with streptavidin/HRP.

Assay [8] has as its target T2, recombinant human PD-1 protein (Sino …). As to the kind of experiment: monoclonal phage ELISA on recombinant human PD-1 protein.

T1 sequence (B0LAJ3 entry or part of it limits assumed): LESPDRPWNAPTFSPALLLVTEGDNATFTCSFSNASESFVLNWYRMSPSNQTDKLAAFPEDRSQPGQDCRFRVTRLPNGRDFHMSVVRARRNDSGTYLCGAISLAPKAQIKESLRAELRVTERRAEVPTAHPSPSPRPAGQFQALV
T2 sequence (Q15116 25-167 limits assumed): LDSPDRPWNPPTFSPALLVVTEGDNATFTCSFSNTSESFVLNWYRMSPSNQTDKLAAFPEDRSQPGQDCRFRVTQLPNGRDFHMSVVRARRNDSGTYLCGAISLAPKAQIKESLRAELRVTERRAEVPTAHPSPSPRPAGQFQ
T4 sequence (P55899 24-297 limits assumed, chain 1 of 2): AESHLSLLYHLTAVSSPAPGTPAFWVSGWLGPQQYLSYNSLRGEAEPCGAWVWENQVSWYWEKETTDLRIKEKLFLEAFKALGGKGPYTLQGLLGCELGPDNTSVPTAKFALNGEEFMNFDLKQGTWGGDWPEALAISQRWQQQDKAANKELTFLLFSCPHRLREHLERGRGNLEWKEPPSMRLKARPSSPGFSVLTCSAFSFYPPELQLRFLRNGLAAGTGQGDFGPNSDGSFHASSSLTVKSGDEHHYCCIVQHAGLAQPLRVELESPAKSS
T4 sequence (P61769 21-119 limits assumed, chain 2 of 2): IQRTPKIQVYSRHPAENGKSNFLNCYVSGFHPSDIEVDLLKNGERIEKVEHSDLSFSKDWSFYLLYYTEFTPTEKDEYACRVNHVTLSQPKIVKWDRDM
T5 sequence (P08637 17-208 F176V limits assumed): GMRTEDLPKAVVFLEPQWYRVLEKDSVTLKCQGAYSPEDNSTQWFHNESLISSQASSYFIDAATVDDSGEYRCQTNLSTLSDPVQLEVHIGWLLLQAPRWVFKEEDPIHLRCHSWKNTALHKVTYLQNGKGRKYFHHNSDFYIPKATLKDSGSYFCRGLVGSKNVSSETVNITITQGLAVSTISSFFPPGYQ

B1: Nivolumab (antibody, V domains shown)
VH: QVQLVESGGGVVQPGRSLRLDCKASGITFSNSGMHWVRQAPGKGLEWVAVIWYDGSKRYYADSVKGRFTISRDNSKNTLFLQMNSLRAEDTAVYYCATNDDYWGQGTLVTVSS
VL: EIVLTQSPATLSLSPGERATLSCRASQSVSSYLAWYQQKPGQAPRLLIYDASNRATGIPARFSGSGSGTDFTLTISSLEPEDFAVYYCQQSSNWPRTFGQGTKVEIK
Take B1: the dissociation constant Kd in assay [1] turned out to be 0.131 nM. Moreover, the EC50 in assay [2] was 0.0802 µg/mL.

B2: murine antibody PD1-M944 (antibody, mouse IgG1, V domains shown)
VH: EVQLVESGGGLVKPGGSLKLSCAASGFTFSSYGMSWVRQTPEKRLEWVATISGGGRDTYYSDSVKGRFTVSRDNAKNNLFLQMSSLRSEDTALYYCSRQYGTVWFFNWGQGTLVTVSA
VL: not shown
notes: Full antibody with mouse IgG1 heavy chain constant region and mouse kappa light chain constant region; Expressed in HEK-293 cells
Turning to B2, the binding result in assay [3] is “binds”.

B3: humanized antibody PD1-H944 (antibody, human IgG4 S228P, kappa)
heavy: not shown
light: EIVLTQSPATLSLSPGERATLSCRASESVDSYGNSFMHWYQQKPGQPPRLLIYAASNQGSGVPARFSGSGSGTDFTLTISSLEPEDFAMYFCQQSKEVPWTFGQGTKVEIKRTVAAPSVFIFPPSDEQLKSGTASVVCLLNNFYPREAKVQWKVDNALQSGNSQESVTEQDSKDSTYSLSSTLTLSKADYEKHKVYACEVTHQGLSSPVTKSFNRGEC
Take B3: the Kd in assay [1] was 0.108 nM. For the same molecule, the binding result was “no binding (tested: 13.30 nM)” in assay [4] and “no binding (tested: 80 µg/mL)” in assay [7]. For the same molecule, in assay [5], the EC50 stood at 0.0327 µg/mL. Also, the “binding relative to Nivolumab at 270 µg/mL” value in assay [6] was ~1.62 times.

B4: M944 scFv antibody (scFv)
scFv: DIVLTQSPASLAVSLGQRATISCRASESVDSYGNSFMHWYQQKPGQPPKLLIYAASNQGSGVPARFSGSGSGTDFSLNIHPMEEDDTAMYFCQQSKEVPWTFGGGTKLEIKSSGGGGSGGGGGGSSRSSEVQLVESGGGLVKPGGSLKLSCAASGFTFSSYGMSWVRQTPEKRLEWVATISGGGRDTYYSDSVKGRFTVSRDNAKNNLFLQMSSLRSEDTALYYCSRQYGTVWFFNWGQGTLVTVSA
notes: Tested as a monoclonal phage clone (pComb3x phage display); Any phage fusion partner is not described; also called PD1-M944 scFv
As to B4, in assay [8], the binding result is “binds”.

Broadly, the Kd is the concentration at which binding is half-saturated. By EC50 is commonly meant the concentration needed to bring the measured effect to its halfway point.

The record behind these values is patent US20220002412A1 (SINOCELLTECH, published 2022).
